Target: Sec61β (dog (endogenous in canine pancreatic microsomes)) (UniProt P60467)
Experiment: cross-linking; BMH on microsomes stripped of ribosomes with EDTA and high salt (EKRM); western blot with anti-Sec62; also with purified canine ribosomes added back

Sequence of UniProt P60467 (P60467 whole entry): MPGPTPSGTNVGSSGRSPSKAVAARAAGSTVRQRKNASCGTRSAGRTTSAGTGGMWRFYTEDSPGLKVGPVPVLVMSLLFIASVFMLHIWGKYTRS

percent of Sec62 cross-linked to Sec61β: > 50%
Substance: Sec62 (from UniProt P82009 1-39) (natural protein)
